T1: Mcl-1, Q07820
T1 chain: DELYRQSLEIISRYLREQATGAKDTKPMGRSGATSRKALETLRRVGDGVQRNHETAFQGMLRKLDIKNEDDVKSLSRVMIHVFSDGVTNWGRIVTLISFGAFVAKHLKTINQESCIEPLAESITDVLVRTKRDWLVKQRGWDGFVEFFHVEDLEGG

T2: Bfl-1, Q16548
T2 chain: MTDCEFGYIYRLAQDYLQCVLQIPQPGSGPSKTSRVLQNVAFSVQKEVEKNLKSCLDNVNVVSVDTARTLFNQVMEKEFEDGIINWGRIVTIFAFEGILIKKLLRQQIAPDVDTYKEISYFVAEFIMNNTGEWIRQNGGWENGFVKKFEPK


Columns and labels:
Assay in all cases: peptide SPOT array, c-Myc-tagged receptor at 1 uM or 100 nM, anti-c-Myc-Cy3
[1] = target: T1, Mcl-1, Q07820
[2] = target: T2, Bfl-1, Q16548
[3] = target: Bcl-xL, Q07817
Bcl-xL, Q07817, sequence (Q07817 1-209): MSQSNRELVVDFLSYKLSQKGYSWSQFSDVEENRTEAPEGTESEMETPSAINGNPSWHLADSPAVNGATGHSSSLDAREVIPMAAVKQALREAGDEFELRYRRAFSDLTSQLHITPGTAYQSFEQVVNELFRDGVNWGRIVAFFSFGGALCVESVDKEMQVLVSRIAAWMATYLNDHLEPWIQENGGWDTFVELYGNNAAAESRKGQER

| Binder | SPOT signal as a fraction of Bim BH3's signal on the same receptor and array [1] | SPOT signal as a fraction of Bim BH3's signal on the same receptor and array [2] | SPOT signal as a fraction of Bim BH3's signal on the same receptor and array [3] |
| --- | --- | --- | --- |
| VLAPVQLGKWLVLFLDEINLPDMDKY [DYNC1H1] | 0.08 | 0.07 | 0.08 |
| LNLLMISVAFLRVILDQLEKLCDSLL [SLC38A8] | 0.04 | 0.05 | 0.07 |
| ELLYGIWSNCDGLISDSFHMFFDSTA | 0.05 | 0.05 | 0.06 |
| SQGKHGFTMAMNAFLDMTNEEFRQMM [CTSL2] | 0.11 | 0.06 | 0.07 |
| MPYMEAVIHEDQRFGDVIPMSLARRV [CYP2A6] | 0.07 | 0.04 | 0.07 |
| SGLPGLSSVDDNNFGDSINESEGIPL | 0.03 | 0.04 | 0.08 |
| THFLDEEVKLDKKMGDHLTNLHRLGG [FTL] | 0.05 | 0.03 | 0.07 |
| KKLKNLEGNEDQRHADEFLLDLGHHE | 0.04 | 0.04 | 0.07 |
| RMIVDCVSSHDKKTGDGAKTFIIFLC [BBS10] | 0.08 | 0.09 | 0.17 |
| SGLPGLSSVDINNFLDSINESEGIPL | 0.04 | 0.04 | 0.11 |
| MRSQLGKATADAIMGDKLWWADQVSE [LRP1] | 0.16 | 0.12 | 0.17 |
| LWAAQRYGREDRRMSDEFVDSFKKGL [BAD] | 0.51 | 0.3 | 0.53 |
| KKLKNLEGNELQRHLDEFLLDLGHHE | 0.05 | 0.04 | 0.08 |
| GSPDSMFGISDAVLGDLNQDGFPDIA [ITGA7] | 0.03 | 0.08 | 0.07 |
| EAVTDGLKRALRSFLNALGNCILDKD [RAD52] | 0.08 | 0.04 | 0.08 |
| SSTMGQVGRQDAIIGDDINRRYDSEF [BAK1] | 0.01 | 0.01 | 0.02 |
| LLDFFMVSILDSKLGDLLHKLQFVLT [PCNXL2] | 0.06 | 0.04 | 0.09 |
| ELDEDDLEAEDDALGDELLADEDSSY [CHMP5] | 0.03 | 0.03 | 0.06 |
| ISSLDLLPYGLRYILKVLKNSIHEKF [IQGAP2] | 0.66 | 0.6 | 0.86 |
| ELLYGIWSNCLGLISDSFHMFFDSTA | 0.06 | 0.06 | 0.07 |
| RAKASSLSEELKHFLDGLETDGTLQK [DSN1] | 0.18 | 0.17 | 0.26 |
| LDFTFVCPTEIIAFLDRLEEFRSINT [PRDX4] | 0.05 | 0.04 | 0.05 |

Results, then the binder that gave them:

| SPOT signal as a fraction of Bim BH3's signal on the same receptor and array [1] | SPOT signal as a fraction of Bim BH3's signal on the same receptor and array [2] | SPOT signal as a fraction of Bim BH3's signal on the same receptor and array [3] | Binder |
| --- | --- | --- | --- |
| 0.06 | 0.04 | 0.06 | MSLFLRVVFSFTMFLDLFEEEYSTVS [USP40] |
| 0.31 | 0.34 | 0.88 | SDIRDDISEQVRHVLRTVRGHPRKKL [TMEM184C] |
| 0.27 | 0.12 | 0.23 | FTCKNKFCKPLFWVLDSVNDCGDNSD [ST14] |
| 0.04 | 0.03 | 0.06 | MSILTIASAVDEFVGDGIYNNTMGHV [TAP1] |
| 0.23 | 0.24 | 0.2 | GGRVKLVHSADIQLGDSLSHKGNEFW |
| 0.23 | 0.23 | 0.28 | GGRVKLVHSALIQLLDSLSHKGNEFW |
| 1.43 | 1.4 | 2.54 | TAAAAYRGAHDRGRGRTVYNTFRAAA |
| 0.04 | 0.04 | 0.1 | PSECETLGSNLGHNLDLLNENNILAK [ZFP90] |
| 1.44 | 1.48 | 2.49 | GTAVAYRGAHLRGRLRAVYNTFRAAP |
| 0.05 | 0.05 | 0.09 | VTLLSEVEKMDSNFGDCVQYKEIVKN [SYNE1] |

From publication PMC4072508, “Genome-Wide Prediction and Validation of Peptides That Bind Human Prosurvival Bcl-2 Proteins” (PLoS Computational Biology, 2014)
